In patent publication US8722622B2, “FGF21 conjugates and anti-diabetic uses thereof” (COVX Technologies Ireland, Limited, priority 2010, dated 2014):

What was measured:
[1] = Intrinsic tryptophan fluorescence thermal unfolding; assay type: physicochemical
Description: Thermal stability of the two candidates was also investigated using intrinsic protein tryptophan fluorescence by measuring midpoint of transition (Tm-FL) of temperature-induced unfolding. This assay monitors changes in tertiary structure semi-quantitatively upon unfolding induced by high temperature.

[2] = Differential scanning calorimetry (DSC); assay type: physicochemical; details: temperature-induced unfolding
Experimental: Thermal stability of the two candidates was investigated using DSC by measuring midpoint of transition (Tm) of temperature-induced unfolding. The Tm value of the major unfolding transition for h38C2 was 73.5° C.

[3] = system: Glut1 mRNA expression in differentiated 3T3-L1 adipocytes; assay: Glut1 Taqman assay; assay type: cell-based; details: differentiated 3T3-L1 adipocytes, 6 hrs; read-out: EC50 in Glut1 Taqman assay
Experimental: Differentiated 3T3-L1 adipocytes were used to measure the Glut1 mRNA expression by qPCR method. Overnight serum starved day 10-14 differentiated 3T3-L1 adipocytes were treated with compounds for 6 hrs. Total RNA was extracted from these cells, and Glut1 and GAPDH mRNA expression was measured using a Quantitect Probe RT-PCR kit and running a quantitative real time PCR reaction in a Taqman machine (Applied Biosystems®). The bioactivity of the compounds was determined by a fold change in Glut1 mRNA levels normalized by the GAPDH mRNA levels from each sample. EC50 values as measurements of the potency of the compounds were obtained from the dose response curves in the assay.
3T3-L1 adipocytes were seeded at day 8 in 24-well tissue culture plates (Falcon®, Cat#353047), and incubated in DMEM complete medium (10% FBS, 2 mM L-glutamine, 1% P/S) at 37° C., 5% CO2. […] The medium was aspirated, and then RNA extracted from the cells using the RNeasy mini Kit according to the manufacturer's instructions. RNA was measured at A260 nm using the Spectramax® Plus spectrophotometer.

[4] = parameters: species or system Swiss-Webster mice; details: mouse, in vivo, sc
Experimental: The PK of FGF21 antibody conjugates were examined in mice after IV or SC administration. […] Antibody conjugates concentrations in serum were determined using an ELISA which captured the FGF21 portion of the antibody conjugates through a monoclonal anti-hFGF21 antibody bound to a 96-well plate. FGF21 antibody conjugates bound to the plate were detected through an anti-hFc monoclonal antibody, and concentrations were determined using a standard curve of the PK dosing solution diluted into serum-containing assay buffer. SC bioavailability was calculated as the ratio of the area-under the curve (AUC) of the SC serum concentration profile divided by the AUC of the IV serum concentration profile.

ob/ob mice = assay: Mouse efficacy in ob/ob mice (OGTT, body weight, liver, gene expression); assay type: in vivo; details: ob/ob mice; for mean glucose AUC % during OGTT: single dose 10 mg/ml as printed (FIG. 6B)
Experimental: The efficacy of FGF21 antibodies conjugates was evaluated in two murine obese insulin resistant models—ob/ob mice and high-fat diet-induced obese mice. For both models, male mice (6-8 weeks of age for ob/ob, 12-14 weeks of age for DIO with high-fat diet initiated at 6 weeks of age) were housed 2-4/cage and FGF21 antibody conjugates were administered by SC injection. Body weight was measured daily in the morning. Glucose tolerance was assessed by oral glucose tolerance test. Briefly, mice were fasted for 4-5 hrs in the morning of the day of testing. A basal blood sample was obtained and blood glucose levels were determined using a portable glucometer. Following basal sample, glucose was administered by oral gavage, and blood samples were drawn from 15 to 120 mins thereafter.
For […] expression, frozen visceral WAT samples collected from the in vivo efficacy studies were homogenized. Total RNA was extracted from the tissue homogenates, and Glut1 and GAPDH mRNA expression was measured using a Quantitect Probe RT-PCR kit and running a quantitative real time PCR reaction in a Taqman machine (Applied Biosystems). The effect of treatment was determined by a fold change in Glut1 mRNA levels normalized by the GAPDH mRNA levels from each sample.

[5] = assay type: physicochemical
Experimental: FGF21ΔH-D79C mutant protein was produced in E. coli and purified as described above. FGF21ΔH-D79C was expressed from 1 L of culture. A 150 mg inclusion body was obtained and 85 mg purified protein was obtained, representing a 60% yield. To test the stability of FGF21ΔH-D79C as well as FGF21ΔH (SEQ ID NO:2), freshly thawed samples were kept at 4° C. over seven days, and examined for their integrity by RP-HPLC, SEC_HPLC, Ellman assay and SDS-PAGE on day 0, 3 and 7. […] PBS (pH7.4) and 20 mM Tris-HCl 50 mM NaCl (pH7.5) made no significant difference of stability of FGF21ΔH-D79C.
It is possible that the solubility of FGF21ΔH-D79C may be reduced at pH6.0. The stability of FGF21ΔH-D79C was examined upon multiple freeze/thaw cycles. The proteins were repeated to freeze (−80 C) and thaw (4° C.) 9 times.

Row | Molecule | Tm-FL of the major unfolding transition [1] | Tm of the major unfolding transition (DSC) [2] [°C] | EC50 [3] [nM] | SC bioavailability [4] [%] | body weight gain (ob/ob mice) | glucose tolerance (ob/ob mice) | Mean Glucose AUC (% of vehicle control) during OGTT (ob/ob mice; single SC dose 1 mg/kg (FIGS. 4A, 4B)) | Mean Glucose AUC (% of vehicle control) during OGTT (ob/ob mice; single SC dose 3 mg/kg (FIGS. 4A, 4B)) | Cumulative body weight change, mean body weight (ob/ob mice; single dose 10 mg/kg (FIG. 6A)) [g] | mean glucose AUC % during OGTT (ob/ob mice) [%] | stability upon freeze/thaw cycles [5] | fraction oxidized at pH 6.0 ([5]; 4° C., three-day incubation) | stability at neutral pH 7.4 ([5]; pH 7.4) | Cumulative body weight change, mean body weight (ob/ob mice; single dose 2 mg/kg (FIG. 6A)) [g]
1 | h38C2: humanized aldolase catalytic antibody h38C2 IgG1, SEQ ID NOS:25 and 26 | approximately 74.1 °C | 73.5 | – | – | – | – | – | – | – | – | – | – | – | –
2 | Ab-L1-FGF21ΔH-H125C: FGF21ΔH-H125C combined with L1 at H125C and conjugated with h38C2 (conjugate, listed as Homo sapiens, conjugated via L1 linker to h38C2 antibody) PIPDSSPLLQFGGQVRQRYLYTDDAQQTEAHLEIREDGTVGGAADQSPESLLQLKALKPGVIQILGVKTSRFLCQRPDGALYGSLHFDPEACSFRELLLEDGYNVYQSEAHGLPLHLPGNKSPHRDPCPRGPARFLPLPGLPPALPEPPGILAPQPPDVGSSDPLSMVGPSQGRSPSYAS | ~79.7 °C | 79 | 3.2 | 67 | reduce body weight gain | improve glucose tolerance | 87 % of vehicle control | 66 % of vehicle control | 0.8 | 51 | – | – | – | –
3 | FGF21ΔH-D79C: FGF21 cysteine mutant, SEQ ID NO:13 (protein, listed as Homo sapiens) PIPDSSPLLQFGGQVRQRYLYTDDAQQTEAHLEIREDGTVGGAADQSPESLLQLKALKPGVIQILGVKTSRFLCQRPCGALYGSLHFDPEACSFRELLLEDGYNVYQSEAHGLPLHLPGNKSPHRDPAPRGPARFLPLPGLPPALPEPPGILAPQPPDVGSSDPLSMVGPSQGRSPSYAS | – | – | 2.1 | – | – | – | – | – | – | 54 | Neither sample showed any difference | more than half | stable | 2.1
